According to US20240366814A1 (University of California, published 2024):

T1: CUB domain-containing protein 1 (CDCP1), human, on the surface of human bladder cancer cell lines (human, UniProt Q9H5V8 30-836)
T1 construct: whole, on cells; Endogenous CDCP1 on UMUC3, TCC SUP, 5637, UMUC9 and other bladder cancer lines; also called SIMA135; CD318
T1 sequence (looked up): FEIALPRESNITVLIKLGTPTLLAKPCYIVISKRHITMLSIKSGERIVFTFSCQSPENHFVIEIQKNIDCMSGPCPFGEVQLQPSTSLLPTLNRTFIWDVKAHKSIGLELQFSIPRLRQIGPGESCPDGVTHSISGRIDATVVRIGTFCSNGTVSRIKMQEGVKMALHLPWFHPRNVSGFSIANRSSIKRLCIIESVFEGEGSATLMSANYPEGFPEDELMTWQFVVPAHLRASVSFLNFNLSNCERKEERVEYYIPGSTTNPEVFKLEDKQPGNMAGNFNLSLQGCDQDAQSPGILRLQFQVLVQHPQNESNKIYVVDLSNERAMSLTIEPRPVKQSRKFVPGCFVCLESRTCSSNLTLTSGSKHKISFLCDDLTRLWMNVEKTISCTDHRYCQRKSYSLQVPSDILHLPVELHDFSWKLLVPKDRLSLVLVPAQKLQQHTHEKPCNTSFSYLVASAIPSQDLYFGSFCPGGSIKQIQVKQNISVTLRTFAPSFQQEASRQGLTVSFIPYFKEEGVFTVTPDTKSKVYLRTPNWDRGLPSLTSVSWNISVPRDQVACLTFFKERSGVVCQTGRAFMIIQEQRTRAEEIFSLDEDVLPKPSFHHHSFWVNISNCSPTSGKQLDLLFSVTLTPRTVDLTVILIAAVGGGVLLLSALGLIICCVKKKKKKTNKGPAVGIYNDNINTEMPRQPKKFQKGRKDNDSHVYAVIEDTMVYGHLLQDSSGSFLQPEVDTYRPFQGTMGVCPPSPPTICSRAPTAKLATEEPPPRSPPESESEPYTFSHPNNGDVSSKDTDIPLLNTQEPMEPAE


Key:
[1] = target: T1, CUB domain-containing protein 1 …; assay: flow cytometry on human bladder cancer cell lines (5637, HT-1197, HT-1397, UMUC9, 639V, T24, 253JBV, UMUC3, TCCSUP)
Protocol: Flow Cytometry. Cells were trypsinized and washed, and then incubated with either a PE-anti-CDCP1 antibody (Biolegend #324017, 1:100) or 4A06 for 30 minutes on ice. For cells incubated with unlabeled 4A06, after the 30 min incubation, the cells were washed with PBS multiple times and placed in a fluorophore conjugated secondary antibody solution for 30 minutes on ice (1:1000, 109-546-097, Jackson ImmunoResearch). Cells were collected and washed before being placed in PBS and passed through a cell strainer. Cells were analyzed using an Attune NxT Flow and data were analyzed using FlowJo software.
(§1) CDCP1 protein expression in human bladder cancer cell lines representing luminal (5637, HT-1197, HT-1397, UMUC9) and basal subtypes (639V, T24, 253JBV, UMUC3, TCCSUP) was evaluated. […] UMUC3 and TCC SUP had the highest expression of CDCP1, while UMUC9 and 253 JBV had the lowest relative level. Cell surface receptor numbers were further quantified using ¹²⁵I-labeled 4A06 antibody.

[2] = target: T1, CUB domain-containing protein 1 …; assay: saturation binding of 125I-4A06 on UMUC3 cells
Protocol: (§2) Saturation binding assays. ¹²⁵I-4A06 was prepared as previously reported (Moroz et al., Clin Cancer Res, 6(14):3608-3615, 2020). The final yield of purified ¹²⁵I-4A06 was ˜60% (specific activity ˜1 μCi/μg) and purity was >99%. UMUC3, TCC SUP, 5637, and UMUC9 cells (0.6×10⁶ cell/well) were seeded on 12-well plates using DMEM (10% FBS). The cells were washed with PBS for the saturation binding assay. Total binding of ¹²⁵I-4A06 was determined by adding it to cell suspensions at seven concentrations from 0.025 nM to 10 nM. Non-specific binding was determined by adding 1000× cold 4A06 to ¹²⁵I-4A06/cell mixtures at three concentrations. Cells were incubated with ˜0.5 μCi ¹²⁵I-4A06 at room temperature for 1 hr, washed with PBS, and lysed by adding 1.0 M NaOH. The bound and unbound radioactive fractions were collected and measured on a Hidex Gamma counter (Turku, FI). Bmax was calculated using Prism v8.0.
as §1

[3] = target: T1, CUB domain-containing protein 1 …; assay: saturation binding of 125I-4A06 on UMUC9 cells
Protocol: as §2, §1

[4] = target: T1, CUB domain-containing protein 1 …; assay: saturation binding of 125I-4A06 on 5637 cells
Protocol: as §2, §1

[5] = target: T1, CUB domain-containing protein 1 …; assay: saturation binding of 125I-4A06 on TCC SUP cells
Protocol: as §2, §1

binding result [1] | Kd [2] [nM] | Kd [3] [nM] | Kd [4] [nM] | Kd [5] [nM] | Binder
binds |  |  |  |  | recombinant monoclonal antibody 4A06 (IgG1 format) (antibody, V domains shown, Used unlabelled in flow cytometry, detected with a fluorophore-conjugated secondary antibody; also called CDCP1-002; 4A06 antibody) VH: EVQLVESGGGLVQPGGSLRLSCAASGFNLSYYYIHWVRQAPGKGLEWVASIYSSSSYTSYADSVKGRFTISADTSKNTAYLQMNSLRAEDTAVYYCARAYYGFDYWGQGTLVTVSS VL: DIQMTQSPSSLSASVGDRVTITCRASQSVSSAVAWYQQKPGKAPKLLIYSASSLYSGVPSRFSGSRSGTDFTLTISSLQPEDFATYYCQQSYYYYPITFGQGTKVEIK
 | 1.84 | 0.181 | 0.284 | 0.583 | 125I-labeled 4A06 antibody (antibody, V domains shown, radioiodinated with iodine-125; labelled residues not stated, specific activity ~1 uCi/ug, purity >99%); also called ^125I-4A06; 125I-4A06) VH: EVQLVESGGGLVQPGGSLRLSCAASGFNLSYYYIHWVRQAPGKGLEWVASIYSSSSYTSYADSVKGRFTISADTSKNTAYLQMNSLRAEDTAVYYCARAYYGFDYWGQGTLVTVSS VL: DIQMTQSPSSLSASVGDRVTITCRASQSVSSAVAWYQQKPGKAPKLLIYSASSLYSGVPSRFSGSRSGTDFTLTISSLQPEDFATYYCQQSYYYYPITFGQGTKVEIK
